Source: patent US20180282690A1, “METHOD AND CULTURE MEDIUM FOR EX VIVO CULTURING OF EPIDERMIS-DERIVED STEM CELLS” (Max-Planck-Gesellschaft zur Förderung der Wissenchaften e.V., priority 2015, published 2018)

B1: FGF-18: human recombinant FGF-18 (protein, UniProt O76093 28-207, looked up)
Fibroblast growth factor 18: EENVDFRIHVENQTRARDDVSRKQLRLYQLYSRTSGKHIQVLGRRISARGEDGDKYAQLLVETDTFGSQVRIKGKETEFYLCMNRKGKLVGKPDGTSKECVFIEKVLENNYTALMSAKYSGWYVGFTKKGRPRKGPKTRENQQDVHFMKRYPKGQPELQKPFKYTTVTKRSRRIRPTHPA
B2: FGF-10: human recombinant FGF-10 (protein, UniProt O15520 38-208, looked up)
Fibroblast growth factor 10: QALGQDMVSPEATNSSSSSFSSPSSAGRHVRSYNHLQGDVRWRKLFSFTKYFLKIEKNGKVSGTKKENCPYSILEITSVEIGVVAVKAINSNYYLAMNKKGKLYGSKEFNNDCKLKERIEENGYNTYASFNWQHNGRQMYVALNGKGAPRRGQKTRRKNTSAHFLPMVVHS
B3: FGF-7: human recombinant FGF-7 (protein, UniProt P21781 32-194, looked up)
Fibroblast growth factor 7: CNDMTPEQMATNVNCSSPERHTRSYDYMEGGDIRVRRLFCRTQWYLRIDKRGKVKGTQEMKNNYNIMEIRTVAVGIVAIKGVESEFYLAMNKEGKLYAKKECNEDCNFKELILENHYNTYASAKWTHNGGEMFVALNQKGIPVRGKKTKKEQKTAHFLPMAIT

System: CD34^+α6^+ HFSCs
Test: 3D-ECM culture of mouse keratinocytes, CD34+α6+ HFSCs quantified by flow cytometry
Format: cell-based
Conditions: for percentage of CD34+α6+ HFSCs: vs untreated 3C; for growth/expansion of CD34+α6+ HFSCs when FGF-2 or VEGF-164 is replaced: in the 3C, YF and/or YV media, compared with FGF-2 / VEGF-164; for normalized CD34+α6+ content of cultures: day 14 Matrigel
Description: Keratinocytes were isolated from back skin of mice by incubating skin pieces in 0.8% Trypsin (Gibco) for 50 min at 37° C. After separating the epidermis from the underlying dermis, cells were homogenized, filtered through 70 μm and 45 μm cell strainers (BD Biosciences) and pelleted at 900 rpm for 3 min. For 2D culture of epidermis-derived cells, tissue culture petri dished were coated with a mixture of collagen I (30 μg/ml)+fibronectin (10 μg/ml; both from Millipore) in MEM for 1 h at 37° C. prior to plating of cells. Epidermis-derived cells were suspended in KGM or in FAD medium, and seeded on the coated plastic dishes. Medium was exchanged the next day after initial seeding and thereafter every second day. […] For 3D culture of HFSCs, 8×10^4 cells were resuspended in 40 μl ice-cold 1:1 KGM:Matrigel mixture that was dispensed as a droplet in 24-well cell culture dishes. The suspension was allowed to solidify for 15 min after which it was overlaid with 500 μl of stem cell media. The following media compositions were used: KGM basal medium, medium Y (KGM, 5 μM Y27632, 10 ng/ml human recombinant EGF), medium Y-E (KGM, 5 μM Y27632), medium YV (KGM, 5 μM Y27632, 10 ng/ml human recombinant EGF, 20 ng/ml mouse recombinant VEGF), medium YF (KGM, 5 μM Y27632, 10 ng/ml human recombinant EGF, 20 ng/ml human recombinant FGF-2), 3C (KGM, 5 μM Y27632, 10 ng/ml human recombinant EGF, 20 ng/ml mouse recombinant VEGF, 20 ng/ml human recombinant FGF-2), and 3C-E (KGM, 5 μM Y27632, 20 ng/ml mouse recombinant VEGF, 20 ng/ml human recombinant FGF-2).
For cell passaging and flow cytometry cultured hair follicle stem cells were extracted from Matrigel by mechanical homogenization and incubation in 0.5% Trypsin (Gibco), 0.5 mM EDTA, PBS or Accutase (Gibco) for 10 min at 37° C.
Single cell suspensions prepared from murine back skin (described above) or from cultured cells were rinsed once with KGM and stained with fluorescently labeled antibodies for 30 min on ice. After two washes with FACS Buffer (2% FCS, 2 mM EDTA, PBS) cells were measured in a BD FACS Canto II and data was analyzed using FlowJo software version 10. For purification of cell populations (cell sorting) a BD FACS Aria II or a BD FACS Aria Fusion were used. Cells were sorted in KGM medium at 4′C. Expression of cell surface markers was analyzed on live cells after exclusion of cell doublets and dead cells, respectively.

[1] = cyclopamine 10 μM for 5 days added to 3C cultures
[2] = 3C conditions (Y27632+EGF+FGF+VEGF), vs VEGF-164 or FGF-2 set to 1
[3] = YF conditions (Y27632+EGF+FGF), vs FGF-2 set to 1

Molecule	growth/expansion of CD34+α6+ HFSCs when FGF-2 or VEGF-164 is replaced	normalized CD34+α6+ content of cultures [2]	normalized CD34+α6+ content of cultures [3]	other results
C[C@@H](N)[C@H]1CC[C@H](C(=O)Nc2ccncc2)CC1.Cl.Cl.O [Y27632, (R)-(+)-trans-4-(1-aminoethyl)-N-(4-Pyridyl)cyclohexanecarboxamide dihydrochloride monohydrate, reference compound]	–	–	–	requirement of ROCK inhibitor for HFSC growth and expansion (3C conditions, from the beginning of the culturing time): essential
CC1=C2C[C@H]3[C@@H](CC=C4C[C@@H](O)CC[C@@]43C)[C@@H]2CC[C@]12O[C@@H]1C[C@H](C)CN[C@H]1[C@H]2C [cyclopamine, (2′R,3S,3′R,3′aS,6'S,6aS,6bS,7′aR,11aS,11bR)-1,2,3,3′a,4,4′,5′,6,6′,6a,6b,7,7′,7′a,8,11,11a,11b-Octadecahydro-3′,6′,10,11b-tetramethylspiro[9H-benzo[a]fluorene-9,2′(3′H)-furo[3,2-b]pyridin]-3-ol, reference compound]	–	–	–	proportion of HFSCs in the cultured cell mixture (3C conditions 9 days, then cyclopamine 10 μM for 5 days, flow cytometry day 14): up to 93.6%; total cell numbers [1]: decrease; percentage of CD34+α6+ HFSCs [1]: elevated
COc1cc(-c2cc(-c3cccc(O)c3)cnc2N)cc(OC)c1OC [K02288, 3-[6-amino-5-(3,4,5-trimethoxyphenyl)pyridin-3-yl]phenol, reference compound]	–	–	–	percentage of CD34+α6+ HFSCs (3C conditions 14 days with K02288 10 nM): decrease
B1	Comparable	–	–	–
B2	Comparable	perform equally well	perform equally well	–
B3	Comparable	perform equally well	perform equally well	–
